This series can be described thus: label from the status in PepcDB records.
Take “MLSIFYWLLAIFLINLGIFIFVLTHERRSMWAGLTLTSTLMFLAFLAIDALIIIEAQFPQQHQIIANLLLLASVGVALFILVFVFLLIIIFLYNGIKILIKEGTKWTNFLSLGTGIAIILLIFAYPVLGRSTSAPWFRFIYLFLSMSIFYIIFIMVMYTLTSWLNLININTKKLNYIVVLGAGLLGKKVTPLLASRINRGIEIYHKNPDSKLIMSGGQGPDEEIPESHAMAAYAEEHGVPKSDIIIEDRSKTTNQNLKFSHQLMKPNSTFCIVTNSYHVYRALVLAKRQGLQCIGYGAKTKWYFTLNAFIREFIAYLVITKKMQCSIIGSLAVINIIFAALYYASTQFFS”: the protein production entry is listed as “failed”.
In the case of “MLSIKANHFMPIVRLKENEPFEAALRRFKRTIEKTGLLTELRSREFYEKPTAERKRKHAAAVKRHYKRIRSQQLPPRLYLEHHHHHH”, the protein production entry is on record as “failed”.
The entry for “MLSIKQLSYALAVSKTLHFRKAADLCHVRQSTLSTGVSELERQLGIKIFERDNKKVLVTPLGREVLDKASNIMLQLEDMAHLDHSCGEP” is “failed”.
As for “MLSKFIKTTLATSLLITLSACSNLKSPVPPAKKADQEKLYESTKNYNALIAMYRADLKHFKDPMTQFKLAKSYYHIGDSKSSVLYLKPLRFTKQPFNNEIELLYIRNLIQLGKYQEAQTVATDLIKMSPQNSEAYNLRGISSAQQGELAKAEQDMNKARELFINDVVAINNIAMLNILNNDYRNAVNLLLPQYLNGSKDSRLIHNLVFALVKSGDIDYATDIIRKESLYASPEDLINALKNTEKAPKVGR”, the entry is “failed”; as for “MLSKPMELLRPSKGMINVHPIQRGGILTEEARKVLLEWGDGYSMCDICLEGRVDLLDKPPVKRFKEEVAEFLGMDEVRFTAGARHAKFVAMSGFKGALVVDSLAHYTTYIAAELNGLRVYEVPNTGYPEFRIEAESYTDVFEKVKEETGDYPAVALLTHADYKYGNLADAKKVAEICRDYGIPLILNTAYTSGIMEVSGRETGCDFIVASGHKSWAATAPIGILATTFEFAERVFRVSEVRGNWSGRAFTKKEVALFGCSPVYGLPLVTLMASFPVVKERVKRWKEEVEKARWFVEEMEKIEGVMLLGERPKNHTLMNFETPSFNLIAKKHRRKGYFLYHELKERGIFGVQPGMTRNVKLNVYGLSWEEVERVAEAFKEIAEKYGLEVED”, “failed”; as for “MLSLKKSLNPPSSFGWSDPDPCKWTHIVCTGTKRVTRIQIGHSGLQGTLSPDLRNLSELERLELQWNNISGPVPSLSGLASLQVLMLSNNNFDSIPSDVFQGLTSLQSVEIDNNPFKSWEIPESLRNASALQNFSANSANVSGSLPGFLGPDEFPGLSILHLAFNNLEGELPMSLAGSQVQSLWLNGQKLTGDITVLQNMTGLKEVWLHSNKFSGPLPDFSGLKELESLSLRDNSFTGPVPASLLSLESLKVVNLTNNHLQGPVPVFKSSVSVDLDKDSNSFCLSSPGECDPRVKSLLLIASSFDYPPRLAESWKGNDPCTNWIGIACSNGNITVISLEKMELTGTISPEFGAIKSLQRIILGINNLTGMIPQELTTLPNLKTLDVSSNKLFGKVPGFRSNVVVNTNGNPDIGKDKSSLSSPGSSSPSGGSGSGINGDKDRRGMKSSTFIGIIVGSVLGGLLSIFLIGLLVFCWYKKRQKRFSGSESSNAVVVHPRHSGSDNESVKITVAGSSVSVGGISDTYTLPGTSEVGDNIQMVEAGNMLISIQVLRSVTNNFSSDNILGSGGFGVVYKGELHDGTKIAVKRMENGVIAGKGFAEFKSEIAVLTKVRHRHLVTLLGYCLDGNEKLLVYEYMPQGTLSRHLFEWSEEGLKPLLWKQRLTLALDVARGVEYLHGLAHQSFIHRDLKPSNILLGDDMRAKVADFGLVRLAPEGKGSIETRIAGTFGYLAPEYAVTGRVTTKVDVYSFGVILMELITGRKSLDESQPEESIHLVSWFKRMYINKEASFKKAIDTTIDLDEETLASVHTVAELAGHCCAREPYQRPDMGHAVNILSSLVELWKPSDQNPEDIYGIDLDMSLPQALKKWQAYEGRSDLESSTSSLLPSLDNTQMSIPTRPYGFAESFTSVDGR”, “not failed”.
As for “MLSLLISVKKLFSSFLGILKKEDTRALFFLLATTLLSGTIFYSTVEKLSPLDSLYLSFMTLTTIGYGDVHPVTDLGKIFTMIYATVGLGIMAMFISVVAKSYLYSKQSHHHHHHKNKEHSAEKSSEK”, the entry is “failed”.
On to “MLSLLLILPVIGALIIGFFPGNIPAKQLRQITEVFAVLTLVWSLLVLFKFDVTDPQFQFQEYLPWIPQLGLNYSLAIDGLSLPLVILNNLLTGVAIYSIGPNVNRSRLYYGLILLINAGISGALLAQNLLLFIVFYELELIPFYLMIAIWGGEKRGYASMKFLLYTAFSGLLVLAAFLGMSLLSGSHSFDYNPEITQTFTESAQTILLILILLGFGIKIPLVPLHTWLPDAYTEASPATAILLGGILAKLGTYGIIRFGLQLFPQTWAQFAPVLAIIGTVTVLYGALSAIAQKDIKRMVAYSSIGHMGYILVAAAAGTELSVLGAVAQMVSHGLILALLFHLVGIVERKAGTRDLDVLNGLMNPIRGLPLTSALLITGGMASAGIPGLVGFAAEFIVFQGSFPTFPIPTLLCILASGLTAVYFVILLNRTCFGKLDNQRAYYPKVLASEMIPALVLTAIIFFLGVQPNYLVHWTQTTTNEMIAQLPHETSAIEQLAQGVTLP”, for which the protein production result was “failed”.
“MLSRLDQRSGGRSPIRAVRTRNSAMRTSRRAIVAFVLGVSALAVPALAFEGAPVNQKDATIPVVTTLPGAAGAVRSKVSPATQETSLSALQYAAEGGHPIAQWKLGRMYANGDGVAQDDVRAFEYFSRIANAHAEDSPSAPQAQIVANAFVALGRYYLSGIPNSKIKPDQDRAREMFSYAASYFGNADAQYDLARLYLKTPDASREDFRYGARWLGLAAQKGQHEAQALLGQMLFNGDRLPRQAARGLMWLTLARDSAGSEETWIKESYNRAFAKASDDDRAMCLQMLEQWVQGRRE”: the protein production result was “failed”.
Regarding “MLSRLRHRLLAVAAAAGLTGALLSFGAAPPADAAVPATIPLKITNNSARGDAVHIYNLGTSLTTGQQGWADENGTFHAWPAGGNPPTPAPDASIPGPAAGQTKTIRIPKLSGRIYFSYGQKLDFRLTTGGLVQPAVQNPSDPNRNILFNWSEYTLNDGGLWLNSTQVDMFSAPYTVGVQRADGGVTSAGQLKAGGYRGVFDALRAQPGWGGLIQTRPDGTVLRALAPLYGVETGALPASVMDDYINRVWQKYTTTTLTVTPFGDRPDTKYFGRVSGNVMNFTNTSGAVVTSFQKPDASSVFGCHRLLDAPNDQVRGPISRTLCAGFNRSTLLSNPNQPDPSAANFYRDPVTNHYARIIHERMADGKAYAFAFDDVGNHESLVHDGNPAEARLTLAPLDLEHHHHHH”, the protein production result is recorded as “not failed”.
The entry for “MLSTMQPTLATNYTTIPCYQLCYQHYATNLAPIIRSTGSMILNYAIIRLSLQQNLCYRKTCVRDTAQYDPPCNKIYTTGLCCSRTYKTLQAFFLDMSETPQKLREEAVKYFNETLDLMQKGENAEALESLRKAESSAQKAEDGPILFHILKVRGQLLQSLDMLEEALETYAFSLIMSEKLLSEDPENKLYTDTLHLNLNNLGNLGNAFQRMGNFPSSKQAYEIGIEICQNLLNSYPENEFYRMYAGNTLNNLGELLFTMGEPEEAKEKYEEALKTYSLLLKNSPEKPEYLSDTAMTLNNLGNLYSEKGQEAEAKENFEKALEILKKRSEKEPGNEKLREEIRITQEKLEAI” is “failed”; for “MLSVSWEYNFSFKKLNVPSFSVCRMLCGKLQNPLDHKKDEASHVKHASQGDVPFSGPLQVSKSNSFAWAKREKDDVCVRVHNRSLSRGYIPSLSGHSPAFNGKSDVESKINKDEKEDKTDSRGEESYEMVKRSMLKQWRQLERPDSFGASDEYHSQELSLGLYQRDEMAKKMGNNLVRP” it is “failed”; for “MLSVVSPNRSTARAARTPFWRRAAVGLCLLGVAMSGPLAAQDPAQVNTFIGSKDDGNTYPGASAPFGLIQVSPIGAHYAGWRYDDPSIRGFGHSFLSGAGCWEQGGQVSVLPVTGRIGPGGDFDTNDAKAFDQKRYAARYTHDGEVGQAGYYKVRLTDYGGIDAEASALTRAATERYTFAPGADTGHVLVNVAQANDRHVVIGSQLQIVGDRVVEGKLTTQSFCGGHEYTTWFRLEFDRPFTAHGVWGEEGGVPGARHGMGGELKPNGAWLSFPLGKDKNARAVTVVSAISHVDAQGARSNLRADGMQGGKLLSLEQMRQRAQNGWRNALASMQVEGASNDDRSVAYTALYHALLQPLTGSDADGRYRGYDDAIHRADGWTYYEYFSLWDTYRSQNQLLALLQPTRARDIGRSLLAIQQQGGWLPRWGYANFDTNIMTGDPVTPFLVDLWRFGALQGNEAEAYAALRQNAFGQPPINSRHAGRSGNANYLANGFVQYDRAFPSKGMDVDPHHGGSATLEYALADCALAQMAQALGHGEDAAQLRKRGGNWHRVWDADVRDAETGFAGFPRPRLEDGSWYAPSDDHYSPRSEHGFHEGTAWQYQWLVQQDIPGMLQAMHGSQQAGKRLDAFFAYDDLLKDPLTAARTHWVVGPYSYYNQYRYNPNNEPDLHAPWMYTLIGQPWKTATVVRAAQQLFTNAPNGVTGNDDLGTMSAWYLFSALGLYPAVPGSGQFLLHAPRFKRVTLNLGNGKRLRIDAPGADGRALQYVDNVRWNGKAQPQVFLDWAQLQQGGTLAFALTKQAPTQGWGTQADALPASFCATPQAQ” it is “failed”.
The entry for “MLTHHKNKLKTIEWTSYVWLAYLPYTIAAYIPVKSWHDWLWLLLVGGFLVLYILVVEKPHWRAVTMPAELVVTGLFAVFAANNFMIIFPGWQVSFLLGRRPKREFYGFALGYYAFLIGGCIRDYLQYPGVFGWHNGDVMGLVFPLLSPILAYTFSWSVERQRQLNQTNRRLKTIVERNERERIARDLHDTLGQSFSMITLKTELAKKLLVKAPEKVAPELDEIEQTSRQNLQLVREIVNNLHEQSLTEVLLAQTRNLAAVGVWTTTTGETQATKWPTTVQSCFAAVLVEAMTNVMRHAHAHEVRIDFVETAKIYQIKLKDDGKGGTLIRQGANGIAGMRTRLQAKQGTFAITSSRRGTQLILTLPKE” is “failed”.
As for “MLTHKTCQARKKMQVSFVIRDAEEKQHRNGVNALQLDANNGKLYSAGRDAIIRVWNTRTDSSEKYIQSMEHHNDWVNDIVLCCNGRNLISASCDTTVKVWNAQKGFCMSTLRTHRDYVQALAYAKDREQVASAGLDKAIFLWDVNTLTALTASNNTVTTSSLTGSKDSIYSLAMNPSGTVIVSGSTENILRIWDPRTCMRRMKLRGHTENVRCLVVSPDGNQVVSGSSDGTIKVWNLGQQRCVQTIHVHKEGVWSLLMSENFQYIISGSRDRNIIVTEMRNPSNKTLVCEEQAPVLSLGYNIDKTGVWATTWNSDIRCWKLPMYDRCTLNSSGGMDAQWTQGGTEVACIKGGAAIKECAVLNDKRYIITKDSQDQVVVYDVLRVVKKEQLGAVDFEAEVKKRNKQVYIPNWFTVDLKTGMPTIVLGQEEVDCFSAWVSIEAGLPECVDPTTEIKINYGKLLLEALLEYWTPPHSIPPNEMEPDMHGNGYFQVPKHTPVIFSEVGGRTVCRLLVRDAAGDSESTLLHETAPQWVTDVVIEKNIPKFLKIPFFLQPHPQMTKPERTKKDRLVANEFIQCRKVCEHVLEKVLNAETTPSGGNANNSLQNSQSDANSEGSQLPAEERIELWCNDVVVDPNMDLRTVRHFIWKQSTDLTFQYKTKQNFNYDGK”, the entry is “failed”.
Take “MLTLHIGGIGIGEPLWFICNILVSFIFSYKLFNSILHNNNISYIFALIYTFSPAMAVLTYSTSWETVLSYAFSPLILYLLYLTFNNLELKGLSFDLILISIFMYVYYFDTDVIMWEGILVVSMLIYLTISHTNRKNCS”: the protein production entry is recorded as “failed”.
The entry for “MLTLPAPEPIAHMEVTSYRAGVQGGSGLWRGQAVYVKTLVSDDPDRVAMFHHEGAVAARLSHPLVTPLLAHTPNQLIFPLLRGGTLRDLVRCGPLDADAATQVTWGVLQAVSHLHGRGVTHHDLKPENVLLIGGQSQVEAVRLIDFGMSHAAGLPLDIHSGTRMGTPQFMAPEQFQGVRGDPRSDLYSVGVLLFDCLAGHPPYADALGWLVGISEERAAAPGPSALHPLMLRAIQRDRDSRPQSAAEMLAALADARQQLGLPELEHIAPEGQTAGENA” is “failed”.

The values are drawn from a protein production outcome set (Wang et al. 2014).
